Experimental data reported in publication PMC8760265.

Target: CDK9 (UniProt P50750)
Test: co-IP with FLAG or HA antibody, immunoblot
Conditions: reference: HA-TRIM28 wild type; sites S824

TRIM28 (from UniProt Q13263) HA-TRIM28-S824A
binding against the reference: weaker
